Measurements: the supplement of paper PMC10567573
± gives the standard deviation.

Assay: protein stability index of a GFP-peptide fusion (GPS, HEK-293T) (PSI 1-6); higher = more stable
Details: c terminus: a fixed tail appended
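Also: 24-mer peptide tiles fused after GFP, lentivirally expressed, FACS-sorted into six equal bins by GFP/DsRed ratio, decoded by Illumina sequencing, PSI is the read-weighted mean bin number.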

MESLISAPLVKTLEKEEEKDLVMY [CDC25B]
protein stability index (treatment: DMSO): 4.56 ± 0.062
protein stability index (treatment: MLN4924 1 uM, 8 h): 4.61 ± 0.24
